The source of these data is patent publication US20150104459A1.

What all share (conditions): remark: other sources report otherwise
For experiment [1], the target named is recombinant homotrimeric HA, A/California/4/09 H1N1 (Influenza A virus A/California/4/09 (H1N1)). As to the kind of experiment: trimeric HA microarray; transfection supernatant set 5.
Experiment [2] addresses recombinant soluble homotrimeric HA of A/Vietnam/1203/04 (H5N1) (Influenza A virus A/Vietnam/1203/2004 (H5N1)). As to the kind of experiment: HA microarray, BCC supernatant.
Experiment [3] addresses recombinant soluble homotrimeric HA of A/chicken/Vietnam/NCVD-016/08 (H5N1) (Influenza A virus A/chicken/Vietnam/NCVD-016/2008 (H5N1)). The experiment in a line: HA microarray, BCC supernatant.
In experiment [4] the target is recombinant soluble homotrimeric HA of A/Wisconsin/67/05 (H3N2) (Influenza A virus A/Wisconsin/67/2005 (H3N2)). The experiment in a line: HA microarray, BCC supernatant.
The target in experiment [5] is recombinant soluble homotrimeric HA of A/Japan/305/57 (H2N2) (Influenza A virus A/Japan/305/1957 (H2N2)). As to the kind of experiment: HA microarray, BCC supernatant.
For experiment [6], the target named is recombinant soluble homotrimeric HA of A/California/4/09 (H1N1) (Influenza A virus A/California/04/2009 (H1N1)). The experiment in a line: HA microarray, BCC supernatant.
Experiment [7] addresses recombinant soluble homotrimeric HA, A/duck/Yangzhou/02/2005 (H8N4) (influenza A virus A/duck/Yangzhou/02/2005 (H8N4)). As to the kind of experiment: microarray, trimeric HA, transfection supernatant.
Experiment [8] addresses recombinant soluble homotrimeric HA, A/Anhui/1/05 (H5N1) (influenza A virus A/Anhui/1/2005 (H5N1)). The experiment in a line: microarray, trimeric HA, transfection supernatant.
The target in experiment [9] is recombinant soluble homotrimeric HA, A/Hong Kong/156/97 (H5N1) (influenza A virus A/Hong Kong/156/97 (H5N1)). The experiment in a line: microarray, trimeric HA, transfection supernatant.
The target in experiment [10] is recombinant soluble homotrimeric HA, A/chicken/Vietnam/NCVD-016/08 (H5N1) (influenza A virus A/chicken/Vietnam/NCVD-016/2008 (H5N1)). The experiment in a line: microarray, trimeric HA, transfection supernatant.
Experiment [11] has as its target T1, recombinant homotrimeric HA, A/Solomon Islands/3/06 H1N1 (Influenza A virus A/Solomon Islands/3/06 (H1N1)). The experiment in a line: trimeric HA microarray; transfection supernatant set 2.
The target in experiment [12] is recombinant soluble homotrimeric HA of A/Solomon Islands/3/06 (H1N1) (Influenza A virus A/Solomon Islands/3/2006 (H1N1)). As to the kind of experiment: HA microarray, BCC supernatant.
Experiment [13] has as its target T2, recombinant homotrimeric HA, A/swine/Ontario/01911-2/99 H4N6 (Influenza A virus A/swine/Ontario/01911-2/99 (H4N6)). As to the kind of experiment: trimeric HA microarray; transfection supernatant set 2.
Experiment [14] addresses recombinant soluble homotrimeric HA of A/Indonesia/5/05 (H5N1) (Influenza A virus A/Indonesia/5/2005 (H5N1)). The experiment in a line: HA microarray, BCC supernatant.
In experiment [15] the target is recombinant homotrimeric HA, A/Japan/305/57 H2N2 (Influenza A virus A/Japan/305/57 (H2N2)). The experiment in a line: trimeric HA microarray; transfection supernatant set 5.
Experiment [16] deals with recombinant soluble homotrimeric HA of A/duck/Yangzhou/02/2005 (H8N4) (Influenza A virus A/duck/Yangzhou/02/2005 (H8N4)). The experiment in a line: HA microarray, BCC supernatant.
Experiment [17] has as its target recombinant soluble homotrimeric HA, A/northern shoveler/California/HKWF115/2007 (H6N1) (influenza A virus A/northern shoveler/California/HKWF115/2007 (H6N1)). The experiment in a line: microarray, trimeric HA, transfection supernatant.
Experiment [18] has as its target T2, recombinant homotrimeric HA, …. The experiment in a line: trimeric HA microarray; transfection supernatant set 5.
Experiment [19] has as its target T1, recombinant homotrimeric HA, A/Solomon …. Described as above.
Experiment [20] has as its target recombinant soluble homotrimeric HA of A/swine/Ontario/01911-2/99 (H4N6) (Influenza A virus A/Swine/Ontario/01911-2/99 (H4N6)). As to the kind of experiment: HA microarray, BCC supernatant.
Experiment [21] addresses recombinant soluble homotrimeric HA of A/Netherlands/219/03 (H7N7) (Influenza A virus A/Netherlands/219/03 (H7N7)). As to the kind of experiment: HA microarray, BCC supernatant.
Experiment [22] addresses recombinant soluble homotrimeric HA, A/Netherlands/219/03 (H7N7) (influenza A virus A/Netherlands/219/03 (H7N7)). The experiment in a line: microarray, trimeric HA, transfection supernatant.

B1: TCN-545 (5082_I15) (antibody, V domains shown)
VH: QVQLQQWGAGLLKPSETLSLSCAVFGGSFSDYYWTWIRQPPGKGLEWIGEIKHSGRTNYNPSLESRVTISVDTSKNQFSLKLSSVTAADTAIYYCARGTDPDTEGYCRSGSCSAFDFWGQGTLVTVSS
VL: EIVLTQSPGTLSLSPGERATLSCRASHFVNYRSLAWYQQTPGQVPRLLIYGASTRATGIPDRFSGSGSGTDFTLTISRLEPEDFAVYFCQQYGGSPRYTFGQGTRLEIK
With B1, in [1], the Trimeric HA Binding: RLU came out at 818 RLU. The Trimeric HA Binding RLU in experiment [2] is 235 RLU; in experiment [3], 392 RLU; in experiment [4] it was 575 RLU; in experiment [5], 157 RLU; in [6], 365 RLU; in experiment [7] it was 13200 RLU. For the same molecule, the Trimeric HA Binding RLU in experiment [8] was 4880 RLU; in experiment [9], 1560 RLU; in [10], 3230 RLU.

B2: TCN-526 (5084_C17) (antibody, V domains shown)
VH: EVLMVESGGGLVQPGGSVRLSCVASGFSFSSHWMTWVRQAPGKGLEWVANIEDDGGDKYYVDSVKGRFIISRDNAKNSVYLQMNSLRAEDTAVYFCARGSGSSDRSDYDPHYYYYLDVWGKGATVTVSS
VL: DIQLTQSPSSLSASVGDRVTITCRASQSISRYLNWYQQKPGKAPKLLLFAASTLLDGVPSRFSGSGSGTDFTLTISSLQPEDFATYYCQRNHSPSWTFGQGTRVEIK
B2: in experiment [11], the Trimeric HA Binding: RLU was 1470 RLU. The Trimeric HA Binding RLU in experiment [3] was determined as 179 RLU; in experiment [4] it was 49300 RLU; in experiment [12] it was 341 RLU; in experiment [5], 246 RLU.

B3: TCN-522 (3212_I12) (antibody, V domains shown)
VH: QVQLQQWGAGLLKPSETLSLTCTVSGGSLTDYSWNWIRQPPGKGLEWIGDTLHNGYTNYNPSLRGRVSISIDTSKNQVSLRLTSVTAADTALYYCARGSGGYGGFDYFGKLRTWDFWGQGTLVTVSS
VL: DIQLTQSPSSLSASVGDRVTITCRASQGIRNDLGWYQQKPGNAPKRLIFGASSLQSGVPSRFSGSGSGTEFTLTISSLQPEDFATYYCLQHNSYPYTFGQGTKLEIK
Regarding B3, the Trimeric HA Binding: RLU in experiment [13] was 1050 RLU. The Trimeric HA Binding RLU in [2] turned out to be 145 RLU; in [4], 302 RLU; in experiment [12], 38900 RLU; in experiment [5] it was 989 RLU; in [6], 5020 RLU; in [14], 67 RLU.

B4: TCN-542 (5079_A16) (antibody, V domains shown)
VH: QVQLQESGPGLVKPSQTLSLTCTVSGGSISSGNYYWNWVRQHPGKGLEWIGYIYYRGSTFYNPSLKSRVTISIDTSKNQFSLRLSSVTAADTAVYYCAKDTRSSLDNYQYGMDVWGQGTTVTVSS
VL: QTVVTQEPSLTVSPGGTVTLTCASSTGAVTSSYFPNWFQQKPGQAPRPLIYSTTIRHSWTPARFSGSLLGGKAALTLSGVQPEDEADYYCLLYSGGDPVAFGGGTKLTVL
Consider B4, for which the Trimeric HA Binding: RLU in experiment [15] turned out to be 5180 RLU. Besides, the Trimeric HA Binding RLU turned out to be 332 RLU in experiment [16]; 142 RLU in experiment [5]; 11600 RLU in [7]; 2370 RLU in [17]; 7410 RLU in [8]; 786 RLU in [9]. In addition, the Trimeric HA Binding RLU in experiment [10] stood at 5460 RLU.

B5: TCN-554 (5277_M05) (antibody, V domains shown)
VH: QVQLVQSGADLKKPGASVKVSCKASGYTFTDYYIHWVRQAPGQGLEWMGWINPESGDTKYAQKFQGRVTMTRDTSITTAYMELGRLRSDDTAVYYCARDVSTTWSWFAPWGQGTLVTVSS
VL: DIVMTQSPDSLAVSLGERATINCRSSQSIFHNSNNENYLAWYQQKPGQPPKLLIYWASTRESGVPDRFSGSGSGTDFTLTISSLQAEDVAVYFCQQYYNAPLTFGGGTKVEIK
For the molecule B5, the values for the Trimeric HA Binding: RLU in experiment [18] and in experiment [19] were 5400 RLU and 992 RLU, respectively. Also, the Trimeric HA Binding RLU in experiment [20] worked out at 78 RLU; in [3] it was 250 RLU; in experiment [4], 46500 RLU; in [5] it was 328 RLU; in experiment [21], 610 RLU; in experiment [7], 5810 RLU. Further, the values for the Trimeric HA Binding RLU in experiment [10] and in experiment [22] were 2710 RLU and 4520 RLU, respectively.

B6: TCN-547 (5092_F11) (antibody, V domains shown)
VH: QVQLQESGPGLVKPSQTLSLTCTVSGDSISSVDHYWSWIRQHPVKGLEWIGFMYYSASTYYNPSLKSRVTISTDTSKNQFSLRLSSVTAADTAVYYCARGTCAGDCSLHYYYYGLDVWGQGRTVTVSS
VL: DIQMTQSPSSLSASVGDRVTITCRASQSISSYLNWYQHKPGKAPKVLMYAVSILQSGVPSRFSGSGSGADFTLTISSLQPEDFATYYCQQSYSSPLTFGGGTKVEIK
As for B6, the Trimeric HA Binding: RLU in experiment [1] was 1470 RLU. The Trimeric HA Binding RLU is 278 RLU in [16]; 198 RLU in experiment [3]; 16900 RLU in experiment [4]; 155 RLU in [12]; 40 RLU in experiment [5]; 170 RLU in [6]. The Trimeric HA Binding RLU in [21] came to 401 RLU; in [7] it was 3340 RLU; in [17] it was 2620 RLU; in experiment [10] it was 1320 RLU; in experiment [22] it was 2090 RLU.
